Laboratory results reported in patent US20240076389A1.
pEC50: −log10 of the molar value.

Legend:
[1] = target: mouse AXL extracellular domain (Sino cat. 51026-M08H) (mouse) (UniProt Q00993); experiment: ELISA on coated AXL ECD (100 ng/well)
[2] = target: recombinant human AXL extracellular domain, C-terminally His8-tagged (rhAXL-ECD) (human) (UniProt P30530); experiment: ELISA on coated AXL ECD (100 ng/well)
[3] = target: cyAXL-ECD displayed on yeast; experiment: yeast surface display ELISA, non-denatured yeast, goat anti-human F(ab')2-HRP
[4] = target: huAXL-ECD displayed on yeast (human) (UniProt P30530); experiment: as above
huAXL-ECD displayed on yeast (human), sequence (P30530 26-449, form in doubt): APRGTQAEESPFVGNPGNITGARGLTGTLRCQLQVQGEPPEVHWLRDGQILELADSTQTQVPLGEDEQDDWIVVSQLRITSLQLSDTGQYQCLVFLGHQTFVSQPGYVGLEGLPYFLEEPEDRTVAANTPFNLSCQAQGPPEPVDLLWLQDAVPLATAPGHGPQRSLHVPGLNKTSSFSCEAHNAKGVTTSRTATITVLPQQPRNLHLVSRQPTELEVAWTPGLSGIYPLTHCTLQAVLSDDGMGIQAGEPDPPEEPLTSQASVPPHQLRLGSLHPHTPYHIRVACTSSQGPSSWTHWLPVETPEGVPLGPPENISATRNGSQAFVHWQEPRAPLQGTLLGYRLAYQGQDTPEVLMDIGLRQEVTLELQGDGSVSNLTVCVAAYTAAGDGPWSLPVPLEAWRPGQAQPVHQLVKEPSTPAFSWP

[5] = target: huMER-ECD displayed on yeast (human) (UniProt Q12866); experiment: as above
huMER-ECD displayed on yeast (human), sequence (Q12866 21-505): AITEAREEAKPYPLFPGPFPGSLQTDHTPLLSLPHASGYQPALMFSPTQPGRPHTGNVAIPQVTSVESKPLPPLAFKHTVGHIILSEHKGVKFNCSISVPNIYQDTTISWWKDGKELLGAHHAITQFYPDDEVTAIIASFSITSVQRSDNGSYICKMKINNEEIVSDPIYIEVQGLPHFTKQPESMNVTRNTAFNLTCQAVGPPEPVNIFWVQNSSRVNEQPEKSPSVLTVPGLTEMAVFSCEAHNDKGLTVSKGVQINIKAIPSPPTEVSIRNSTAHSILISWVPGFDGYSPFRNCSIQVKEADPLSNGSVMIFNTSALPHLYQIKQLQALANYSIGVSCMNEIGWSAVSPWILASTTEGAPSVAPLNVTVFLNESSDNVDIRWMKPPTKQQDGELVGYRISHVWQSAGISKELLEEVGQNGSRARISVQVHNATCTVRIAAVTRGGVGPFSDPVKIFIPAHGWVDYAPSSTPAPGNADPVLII

[6] = target: huTyro3-ECD displayed on yeast (human) (UniProt Q06418); experiment: as above
huTyro3-ECD displayed on yeast (human), sequence (Q06418 41-429): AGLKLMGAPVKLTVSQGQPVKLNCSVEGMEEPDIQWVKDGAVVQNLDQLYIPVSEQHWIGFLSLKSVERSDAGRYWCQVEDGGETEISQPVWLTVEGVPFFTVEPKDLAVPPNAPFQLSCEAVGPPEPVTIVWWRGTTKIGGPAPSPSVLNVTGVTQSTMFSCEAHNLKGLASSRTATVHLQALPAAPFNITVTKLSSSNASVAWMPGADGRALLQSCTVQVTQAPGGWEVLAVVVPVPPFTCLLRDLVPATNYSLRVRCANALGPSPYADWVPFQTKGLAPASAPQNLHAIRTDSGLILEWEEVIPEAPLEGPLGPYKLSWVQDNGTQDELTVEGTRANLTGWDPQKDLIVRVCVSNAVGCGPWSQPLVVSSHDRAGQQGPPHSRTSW

mouse AXL extracellular domain (Sino cat. 51026-M08H) (mouse), sequence (Q00993 19-445, stated change not applied): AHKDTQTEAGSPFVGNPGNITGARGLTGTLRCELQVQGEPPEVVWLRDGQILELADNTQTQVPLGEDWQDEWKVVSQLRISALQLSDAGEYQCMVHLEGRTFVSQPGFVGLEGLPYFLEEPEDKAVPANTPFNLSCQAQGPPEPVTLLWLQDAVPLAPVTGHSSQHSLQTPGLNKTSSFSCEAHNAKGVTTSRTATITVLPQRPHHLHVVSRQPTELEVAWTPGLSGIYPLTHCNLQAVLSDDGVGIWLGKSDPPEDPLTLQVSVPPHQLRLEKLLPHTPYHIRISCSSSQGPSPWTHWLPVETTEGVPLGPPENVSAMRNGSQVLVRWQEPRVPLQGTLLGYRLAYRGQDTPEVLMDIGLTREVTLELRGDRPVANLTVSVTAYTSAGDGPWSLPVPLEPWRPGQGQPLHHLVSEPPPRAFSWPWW
recombinant human AXL extracellular domain, C-terminally His8-tagged (rhAXL-ECD) (human), sequence (P30530 other isoform, or with tags, fused parts or gaps limits assumed): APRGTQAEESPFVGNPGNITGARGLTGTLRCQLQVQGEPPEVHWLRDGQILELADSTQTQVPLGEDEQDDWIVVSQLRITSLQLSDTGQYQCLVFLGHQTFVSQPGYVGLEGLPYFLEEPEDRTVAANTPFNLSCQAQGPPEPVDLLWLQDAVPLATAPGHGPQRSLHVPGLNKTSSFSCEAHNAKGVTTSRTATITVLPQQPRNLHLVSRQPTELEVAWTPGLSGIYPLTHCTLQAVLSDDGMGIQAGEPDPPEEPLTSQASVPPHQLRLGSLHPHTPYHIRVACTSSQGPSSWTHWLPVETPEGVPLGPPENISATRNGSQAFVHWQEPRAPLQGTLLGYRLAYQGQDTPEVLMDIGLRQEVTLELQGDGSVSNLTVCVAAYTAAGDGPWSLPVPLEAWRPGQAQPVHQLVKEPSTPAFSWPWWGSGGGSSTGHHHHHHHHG

Substance	pEC50 [1]	pEC50 [2]	yeast ELISA signal normalized to myc expression level [3]	yeast ELISA signal normalized to myc expression level [4]	yeast ELISA signal normalized to myc expression level [5]	yeast ELISA signal normalized to myc expression level [6]
MAB8541 (R&D Systems), commercial anti-mouse AXL mAb, clone 175128, rat IgG2A (antibody)	9.00	7.21				
hFC-anti-RSV (antibody)			-0.004	0.087	-0.001	0.059
